Data as given in patent US12427188B2, “Pyocyanine demethylases and related phenazine degrading agents compositions, methods and systems for interfering with viability of bacteria” (priority 2020, dated 2025).

Tests used:
[1] = Activity after boiling (kinetic stability); format: physicochemical; conditions: after 30 and 60 min of boiling; PodA 3 μM, PYO 100 μM
Protocol: FIG. 13. Activity of WT PodA30-162 and PodA10 after boiling. Protein was boiled as described in Materials and Methods, followed by an activity assay with PodA (3 μM) and PYO (100 μM) in a Spectramax M3 plate reader monitoring PYO absorbance (690 nm) overtime. Specific activity (nmol min-1 mg-1) was calculated for each sample. Replicates of PodA^WT un-boiled were averaged and set to 100% activity (dashed line). All other activities of boiled samples were compared to this value and presented as a percentage. Data represent technical triplicates and error bars represent standard deviation. A t-test was completed, with * representing a p-value<0.05 and ns representing not significant.
Due to the high thermal stability of PodA, stability assays that rely on monitoring protein unfolding over a temperature gradient were not suitable for the related testing. Therefore the enzyme's kinetic stability were analyzed by boiling WT PodA41-162 and PodA10 and measuring activity of each protein after specified boiling times. […] We also noted that several designed mutations in PodA8 and PodA10 were not prevalent in a multiple-sequence alignment of PodA homologs (FIG. 14), indicating the importance of the atomistic calculations to design success

[2] = system: P. aeruginosa strain PA14; assay: PodA and tobramycin liquid (planktonic) synergy experiments; format: cell-based, Pseudomonas aeruginosa; conditions: LB; PodA10 5 μM; compared to individual antibiotic controls
Protocol: Pseudomonas aeruginosa PodA and tobramycin liquid synergy experiments. For planktonic synergy experiments, starter cultures were grown 24 h at 37° C. shaking in LB. Stationary phase cultures (usually between OD500 4-6) were aliquoted (100 μL) into 96-well clear bottom flat well plates (VWR). Antibiotics and PodA were diluted into stock concentrations to pipette 5 μL antibiotic and 2 μL PodA per well. Antibiotics were diluted into water and PodA was diluted into 50 mM HEPES (pH 7.5). Plates were incubated in a humidity Tupperware chamber lined with wet paper towel at 37° C. for 10 h. After incubation, wells were pipetted to resuspend, and each well was diluted 1:10 into fresh LB. From that mixture, 10 μL of diluted cells were pipetted into 90 μL fresh LB in 96-well flat bottom plates. Mineral Oil, light (65 μL undiluted, Sigma-Aldrich) was pipetted onto top of cultures to prevent dehydration and allow for oxygen diffusion. Microtiter plates were incubated at 37° C. inside a temperature-controlled chamber of a BioTek Synergy 4 plate reader. […] Cells from each 10 μL drips dilution were counted if colonies were between 10-100.
PodA10 and tobramycin cell treatments (same samples from FIG. 8) were diluted in series and dilutions were plated onto LB agar. Cells were counted if a dilution contained 10-100 colonies. […]

B1: PodA10: Designed PodA41-162 variant: A53N, I73T, A87V, M99V, A129T; SEQ ID NO: 4 (protein)
chain: MVTMTLDVKNDQVNKHDFGKPGMDVGDMDIFSDTLSVDGKQVGYDGGVCFFTNVTPDNPVTYCELTIHLDAGEIFARSLTPATLAPFTMTITGGTGEYANSKGELTVSGVATPDEKYELKLTK
Activity after boiling [1]: significantly higher activity compared to WT PodA30-162
cell viability (CFUs) [2]: did not increase cell death
